In patent US5821075:

Target: myelin basic protein, 32P-labeled on tyrosine residues

dephosphorylation (radioactivity released as inorganic phosphate, percentage of total input): > 30%
B1: PTPL1 protein tyrosine phosphatase (enzyme)
chain: MVQPEQAPKVLNVVVDPQGRGAPEIKATTATSVCPSPFKMKPIGLQERRGSNVSLTLDMSSLGNIEPFVSIPTPREKVAMEYLQSASRILDKVQLRDVVASSHLLQSEFMEIPMNFVDPKEIDIPRHGTKNRYKTILPNPLSRVCLRPKNVTDSLSTYINANYIRGYSGKEKAFIATQGPMINTVDDFWQMVWQEDSPVIVMITKLKEKNEKCVLYWPEKRGIYGKVEVLVISVNECDNYTIRNLVLKQGSHTQHVSNYWYTSWPDHKTPDSAQPLLQLMLDVEEDRLASQGPRAVVVHCSAGIGRTGCFIATSIGCQQLKEEGVVDALSIVCQLRMDRGGMVQTSEQYEFVHHALCLYESRLSAETVQ
